Results from paper PMC9984183 (Science Advances, 2023).

Target: human secretory pathway Ca2+/Mn2+ ATPase 1, isoform 1a (SPCA1a), PA-tagged (human, UniProt P98194)
Test: SEC

human secretory pathway Ca2+/Mn2+ ATPase 1, isoform 1a (SPCA1a), PA-tagged, sequence (P98194 whole entry, canonical isoform): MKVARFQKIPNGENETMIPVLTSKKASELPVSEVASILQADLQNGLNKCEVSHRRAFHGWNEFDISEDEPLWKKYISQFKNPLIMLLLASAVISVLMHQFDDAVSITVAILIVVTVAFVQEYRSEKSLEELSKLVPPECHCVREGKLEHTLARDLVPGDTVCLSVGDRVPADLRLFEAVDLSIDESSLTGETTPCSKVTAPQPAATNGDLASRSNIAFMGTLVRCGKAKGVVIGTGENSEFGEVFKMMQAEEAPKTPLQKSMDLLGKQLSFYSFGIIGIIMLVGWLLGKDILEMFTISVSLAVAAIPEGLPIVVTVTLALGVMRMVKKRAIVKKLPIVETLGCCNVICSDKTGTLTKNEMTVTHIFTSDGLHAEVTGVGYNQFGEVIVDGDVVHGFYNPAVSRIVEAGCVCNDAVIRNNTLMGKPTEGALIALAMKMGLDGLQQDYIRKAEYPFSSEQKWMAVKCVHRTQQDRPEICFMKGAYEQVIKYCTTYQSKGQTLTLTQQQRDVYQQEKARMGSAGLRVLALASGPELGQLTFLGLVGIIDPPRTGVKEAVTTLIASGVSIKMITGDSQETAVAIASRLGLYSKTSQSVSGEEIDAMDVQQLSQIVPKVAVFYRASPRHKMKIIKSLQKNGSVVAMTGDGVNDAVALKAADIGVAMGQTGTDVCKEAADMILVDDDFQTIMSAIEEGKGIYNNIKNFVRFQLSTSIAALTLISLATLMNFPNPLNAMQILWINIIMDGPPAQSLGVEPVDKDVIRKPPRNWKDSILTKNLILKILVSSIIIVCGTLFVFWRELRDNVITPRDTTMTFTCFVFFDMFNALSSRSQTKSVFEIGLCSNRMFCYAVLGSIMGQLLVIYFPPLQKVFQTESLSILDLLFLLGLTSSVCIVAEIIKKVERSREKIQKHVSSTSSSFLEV

binding result: binds
B1: nanobody 14 (Nb14), recombinant (VHH)
VHH: QVQLQESGGGLVQAGGSLRLSCAASGSIFGADWMGWYRQAPGKEREFVAGIGHGASTYYADSVKGRFTISRDNAKNTVYLQMNSLKPEDTAVYYCAVQYTQGWSGQYRSYDSLLYWGQGTQVTVSS
